Measured values from patent US20090087478A1 (PROGENICS PHARMACEUTICALS NEVADA, published 2009).
Like-named read-outs stand apart in the source and are kept apart here.

What was measured:
[1] = molecular target: T1, ToxA:2459-2710 (C-terminal eleven repeats of the toxin A CWB domain) (Clostridium difficile, UniProt P16154 2459-2710)
[2] = molecular target: T1, ToxA:2459-2710 (C-terminal eleven …); test: SPR, apparent KD
[3] = molecular target: T2, ToxB:1807-2366 (CWB domain of C. difficile toxin B, expressed in E. coli) (Clostridium difficile, UniProt P18177 1807-2366); test: SPR, toxin domain immobilised, apparent Kd
T2 construct: range 1807-2366

Binder | Kd [1] [nM] | Kd [2] [nM] | Kd [3] [nM]
Antibody 227 (or 3359), murine monoclonal anti-toxin A antibody (antibody, V domains shown) VH: EVQLVESGGGLMKPGGSLKLSCAASGFAFGSYDMSWVRQTPEKRLEWVAYISSGGGITFYPDSVRGRFTISRDNAKNSLYMEMSSLRSEDTAMYYCARWDWDLFAYWGQGTLVTVSA VL: DIKMTQSPSSMYTSLGERVTITCKASQDINSCLSWFQQKPGKSPKALIFRANILVDGVPSRFSGSGSGQDYSLTISSLEYEDLGIYYCLQYDEFPWTFGGGTRLEIK | 12 |  | 
Antibody 3358 (or 543), murine monoclonal anti-toxin A antibody (antibody, V domains shown) VH: QVQLQQPGAELVKPGASVRLSCKAGGYTFTSYWLHWVKQRPGQGLEWIGMIHPNSGSYDYSETFRTKATLTVDKSSDTAYMQLTSLTSEDSAVYYCARGGSNYDIFAYWGQGTTLTVSS VL: NIVMTQSPKSMSMSVGERVTFNCRASENVGTYVFWYQQKPEQSPRLLIYGASNRYTGVPDRFTGSGSATDFTLTISGVQAEDLADYHCGQSYRHLTFGGGTKLEIK | 0.7 | < 30 | 
Antibody F87, murine monoclonal anti-toxin B antibody (antibody, V domains shown) VH: QVQLQQPGTELVKPGASVKLSCKASGYTFTNYWMHWVKQRPGQGLEWVGNINPSNGGTNYNEKFKSKATLTVDKSSSTAYMQLSSLTSEDSAFYYCARGRGPPYYSDYWGQGSTLTVSS VL: NIQMTQSPASLSASVGETVTITCRASGNIHNYLAWYQQKQGKSPQLLVYNAKTLADGVPSRFSGSGSGTQYSLKINSLQPEDFGSYYCQHFWSTPFTFGSGTKLEIK |  |  | 0.05
rPBA-3, chimeric recombinant form of anti-toxin A monoclonal antibody PBA-3 (wildtype, plasmids BD12584 heavy and BD12585 light) (antibody, V domains shown) VH: QVQLQQSGPELVKPGASVRISCKASGFTFTSYHVNWVKQRPGQGLEWIGWIYPGNVNTEYNEKFKGKATLTADKSSSTAYMQLSSLTSEDSAVYFCASHEYYGSDWYFDVWGAGTTVTVSS VL: DAVMTQTPLSLPVSLGDQASISCRSSQSLENRNGNTYLNWYLQKPGQSPQLLIYRVSNRFSGVLDRFSGSGSGTDFTLKISRVEAEDLGVYFCLQVTHVPYTFGGGTKLEIK | 60 |  | 
